Test results as given in US20240076689A1, “VIRAL VECTORS AND NUCLEIC ACIDS FOR REGULATED GENE THERAPY” (Boehringer Ingelheim International GmbH, priority 2020, published 2024).

Columns and labels:
[1] = four 100 mg/kg Tet doses in 8 h intervals
[2] = Tet plasma concentration in the mIL-12 time course study; settings: female, C57Bl/6, mouse, in vivo
[3] = test system: IL-12 and IFNγ plasma levels, body weight, liver enzymes; test: Dose-finding study to determine PK and safety of Tet-switch-controlled IL-12 (FIG. 18); settings: 30 mg/kg i.p. twice daily for 5 consecutive days
[4] = test system: eGFP expression in HEK293 cells; test: Tet-dependent eGFP expression from K19 constructs in transfected HEK293 cells; settings: HEK293, independent of Tet
[5] = test system: eGFP and sNLuc expression in HEK293 cells; test: K19 riboswitch kinetics in HEK293 cells (qPCR, fluorescence, Western blot, sNLuc)

CN(C)[C@@H]1C(O)=C(C(N)=O)C(=O)[C@@]2(O)C(O)=C3C(=O)c4c(O)cccc4[C@@](C)(O)[C@H]3C[C@@H]12 [Tet, tetracycline]
other signs of toxicity [1]: no other signs of toxicity were observed | concentration at 8 h ([2]; 10 mg/kg): 100 nM | concentration at 8 h ([2]; 30 mg/kg): 750 nM | tolerability of Tet (in words) [3]: well tolerated

B1: catalytically inactive K19 switch: control plasmid harboring a catalytically inactive, non-cleaving K19 switch (SEQ ID No. 45) (nucleic acid)
chain: GGCGCGTCCTGGATTCGTGGTAAAACATACCAGATTTCGATCTGGAGAGGTGAAGAATACGACCACCTACTACATCCAGCTGATGAGTCCCAAATAGGACGAGACGCGCT
modifications: the letters are possibly those of the target site
steady eGFP expression level, of constitutive signal [4]: about 90%

B2: K19: Tet-responsive aptazyme: tetracycline aptamer plus hammerhead ribozyme N79 (Beilstein et al. 2015), SEQ ID NO:9/10; tested in active-switch plasmids (nucleic acid)
chain 1: GGCGCGTCCTGGATTCGTGGTAAAACATACCAGATTTCGATCTGGAGAGGTGAAGAATACGACCACCTACTACATCCAGCTGATGAGTCCCAAATAGGACGAAACGCGCT
chain 2: GGCGCGUCCUGGAUUCGUGGUAAAACAUACCAGAUUUCGAUCUGGAGAGGUGAAGAAUACGACCACCUACUACAUCCAGCUGAUGAGUCCCAAAUAGGACGAAACGCGCU
modifications: chemistry not fully specified; one strand in two spellings; the letters are possibly those of the target site
onset of eGFP expression induction on the mRNA level after Tet addition ([5]; HEK293, 50 μM Tet): 15 min | onset of increase in direct eGFP fluorescence signal after Tet addition ([5]; HEK293, 50 μM Tet): two | time to full induction on the mRNA level ([5]; HEK293, 50 μM Tet): four | reversibility upon Tet retraction (in words) ([5]; HEK293 previously grown in presence of Tet): relative decrease in sNLuc expression was observed | Tet-induced sNLuc increase detected after addition ([5]; HEK293 supernatant): 2 h | time to saturation of sNLuc increase ([5]; HEK293 supernatant): 4 to 8 h
